From patent publication US20260217860A1

What was measured:
[1] = biological target: monkey EGFR on CHO-S-fasEGFR cells (monkey) (UniProt P55245); experiment: flow cytometry, transfected CHO-S cells
[2] = biological target: monkey (Macaca fascicularis) MUC1 on CHO-S-fasMUC1 cells (monkey (Macaca fascicularis)); experiment: flow cytometry, transfected CHO-S cells
[3] = biological target: human MUC1 (484 amino acids) on CHO-S-hMUC1 (484AA) cells (human) (UniProt P15941); experiment: flow cytometry, transfected CHO-S cells
[4] = biological target: human EGFR on CHO-S-hEGFR cells (human) (UniProt P00533); experiment: flow cytometry, transfected CHO-S cells
[5] = biological target: monkey EGFR on CHO-S-fasEGFR cells (monkey) (UniProt P55245); experiment: flow cytometry, transfected CHO-S cells, secondary antibody only
[6] = biological target: monkey (Macaca fascicularis) MUC1 on CHO-S-fasMUC1 cells (monkey (Macaca fascicularis)); experiment: as above
[7] = biological target: human MUC1 (484 amino acids) on CHO-S-hMUC1 (484AA) cells (human) (UniProt P15941); experiment: as above
[8] = biological target: human EGFR on CHO-S-hEGFR cells (human) (UniProt P00533); experiment: as above

monkey (Macaca fascicularis) MUC1 on CHO-S-fasMUC1 cells (monkey (Macaca fascicularis)), sequence (chain, as listed by the source): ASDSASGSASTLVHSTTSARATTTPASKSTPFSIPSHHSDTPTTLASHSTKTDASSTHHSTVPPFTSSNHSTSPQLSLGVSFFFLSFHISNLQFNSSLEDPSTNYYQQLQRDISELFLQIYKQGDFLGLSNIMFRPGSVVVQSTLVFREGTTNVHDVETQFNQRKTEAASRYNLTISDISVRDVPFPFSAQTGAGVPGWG

With “isotype control (ISO), an antibody targeting an irrelevant target protein” the Percentage of Positive Cells (%) [1] was 0.58%, the Percentage of Positive Cells (%) [2] was 1.15% and the Percentage of Positive Cells (%) [3] was 4.05%. For the same substance, the Percentage of Positive Cells (%) [4] was 0.7%.
Substance “secondary antibody anti-hIgG-Fc-Alex Flour 647 (RLI-H) (Jackson ImmunoResearch Laboratories, Inc., Cat #: 109-606-170)” has a Percentage of Positive Cells (%) [5] of 0.19%, a Percentage of Positive Cells (%) [6] of 0.91% and a Percentage of Positive Cells (%) [7] of 2%. For the same substance, the Percentage of Positive Cells (%) [8] was 0.66%.
